Numbering of substitutions follows the chain as printed.
What was measured:
[1] = molecular target: T1, His-CRP (cAMP receptor protein) (Escherichia coli, UniProt P0ACJ8 1-210); experiment: DRaCALA
[2] = molecular target: Maltose binding protein (MBP) (UniProt P0AEX9 27-396); experiment: DRaCALA
[3] = molecular target: T1, His-CRP (cAMP receptor protein); experiment: EMSA
[4] = molecular target: T1, His-CRP (cAMP receptor protein); experiment: DRaCALA; remark: listed apart in the source

T1 sequence (P0ACJ8 whole entry): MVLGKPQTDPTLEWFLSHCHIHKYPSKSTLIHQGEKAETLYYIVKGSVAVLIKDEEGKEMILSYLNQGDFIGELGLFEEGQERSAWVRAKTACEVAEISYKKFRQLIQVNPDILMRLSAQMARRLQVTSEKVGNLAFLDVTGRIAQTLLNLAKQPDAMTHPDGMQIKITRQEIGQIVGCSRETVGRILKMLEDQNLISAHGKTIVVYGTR

B1: ICAP 8,10:G-C (gd132/gd133) (dsDNA)
DNA 1: AGGAGGAATAAATCTCATCTAGATGAGATTTTAGAGGAGG
DNA 2: CCTCCTCTAAAATCTCATCTAGATGAGATTTATTCCTCCT
B1: no binding [1].

B2: ICAP 10:G-C (gd130/gd131) (dsDNA)
DNA 1: B1 DNA 1 with C14G, G27C
DNA 2: B1 DNA 2 with C14G, G27C
B2: no binding [1].

B3: ICAP 40-bp (gd126/gd127) (dsDNA)
DNA 1: B1 DNA 1 with C14G, C16G, G25C, G27C
DNA 2: B1 DNA 2 with C14G, C16G, G25C, G27C
B3: binds [1]; no binding [2].

B4: ICAP oligo (vl1427/vl1428) (dsDNA)
DNA 1: GCAACGCAATAAATGTGATCTAGATCACATTTTAGGCACCC
DNA 2: GGGGTGCCTAAAATGTGATCTAGATCACATTTATTGCGTTG
B4 gave a Kd [3] of 0.081 nM and a Kd [4] of 0.036 nM.
